Assay results reported in PMC7835958, “Unlike its Paralog LEDGF/p75, HRP-2 Is Dispensable for MLL-R Leukemogenesis but Important for Leukemic Cell Survival” (Cells, 2021).

T1: HRP-2_(469–549) (human, UniProt Q7Z4V5 469-549, 15N-labeled)
T1 construct: also called HRP-2-IBD; HRP-2 IBD; source: E. coli Rosetta2 (DE3), purified
T1 sequence (looked up): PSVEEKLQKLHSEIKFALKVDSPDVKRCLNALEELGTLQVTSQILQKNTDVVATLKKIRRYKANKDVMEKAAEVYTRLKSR

T2: LEDGF/p75_(345–426) (human, UniProt O75475 345-426, 15N-labeled)
T2 construct: also called LEDGF/p75-IBD; LEDGF/p75 IBD; source: E. coli Rosetta2 (DE3), purified
T2 sequence (looked up): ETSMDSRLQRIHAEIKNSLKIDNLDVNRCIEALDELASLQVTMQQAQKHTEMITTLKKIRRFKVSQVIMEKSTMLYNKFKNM

T3: MBP-LEDGF/p75_(325–530) (human, UniProt O75475 325-530)
T3 construct: LEDGF/p75 C-terminal fragment, residues 325-530; also called LEDGF_(325–530); MBP-fused C-terminal fragment of LEDGF/p75; source: E. coli Rosetta2 (DE3), purified
T3 sequence (looked up): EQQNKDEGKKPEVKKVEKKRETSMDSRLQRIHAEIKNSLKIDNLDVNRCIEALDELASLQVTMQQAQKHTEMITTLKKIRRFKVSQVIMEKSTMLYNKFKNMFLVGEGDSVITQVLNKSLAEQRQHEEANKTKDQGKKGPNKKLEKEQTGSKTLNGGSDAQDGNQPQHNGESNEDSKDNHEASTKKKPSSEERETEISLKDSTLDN

B1: synthetic MLL peptide (123–160) (peptide, UniProt Q03164 123-160, looked up)
peptide: GTNLRRFRAVFGESGGGGGSGEDEQFLGFGSDEEVRVR
notes: also called MLL-derived peptide; source: synthetic peptide
B2: MLL_(1–160)–GST (domain or fragment, UniProt Q03164 1-160, looked up)
chain: MAHSCRWRFPARPGTTGGGGGGGRRGLGGAPRQRVPALLLPPGPPVGGGGPGAPPSPPAVAAAAAAAGSSGAGVPGGAAAASAASSSSASSSSSSSSSASSGPALLRVGPGFDAALQVSAAIGTNLRRFRAVFGESGGGGGSGEDEQFLGFGSDEEVRVR
notes: MLL (MLL1, KMT2A) N-terminal fragment, residues 1-160; The printed name MLL_(1–160)–GST hints at a C-terminal GST; also called GST-tagged MLL_(1–160); GST-tagged N-terminal fragment of MLL; source: E. coli Rosetta2 (DE3), purified

How the values were obtained:
Conditions in all cases: both partners purified
[1] = target: T1, HRP-2_(469–549); assay: NMR titration; 20 µM 15N-labeled IBD (HRP-2 469–549 or LEDGF/p75 345–426) mixed with various concentrations of unlabeled synthetic MLL peptide (123–160); 15N/1H HSQC (SOFAST), 25 °C; KD from chemical shift perturbations
[2] = target: T2, LEDGF/p75_(345–426); assay: as above
[3] = target: T4, Full length flag-tagged LEDGF/p75 (human, UniProt O75475 1-530); assay: AlphaScreen or HTRF; out-competition: Flag-LEDGF/p75 (0.3 nM) preincubated with MLL_(1–160)–GST (10 nM) before titration of MBP-LEDGF/p75_(325–530), MBP-HRP-2_(470–552) or MBP alone
T4 construct: LEDGF/p75, full length; also called Flag-LEDGF/p75; flag-LEDGF/p75; source: E. coli Rosetta2 (DE3), purified

[4] = target: T3, MBP-LEDGF/p75_(325–530); assay: as above

Row | Binder | Kd [1] [µM] | binding result [2] | binding result [3] | binding result [4]
1 | B1 | 54.4 ± 2.2 | binds | – | –
2 | B2 | – | – | binds | binds
